Experimental data from FireProtDB (doi:10.1111/j.1432-1033.1994.tb18664.x).

Conditions: Escherichia coli (strain K12), Thermal, CD, NaCl 0.1 M, reversible: yes, whole UniProt chain shown

B1: Ribonuclease HI wild type, P0A7Y4 (protein)
chain: MLKQVEIFTDGSCLGNPGPGGYGAILRYRGREKTFSAGYTRTTNNRMELMAAIVALEALKEHCEVILSTDSQYVRQGITQWIHNWKKRGWKTADKKPVKNVDLWQRLDAALGQHQIKWEWVKGHAGHPENERCDELARAAAMNPTLEDTGYQVEV
Tm (pH 3, glycine-HCl 10 mM): 50 °C | unfolding enthalpy (van 't Hoff) (pH 3, glycine-HCl 10 mM): 107 kcal/mol | Tm (pH 5.5, Sodium acetate 20 mM): 53.1 °C | unfolding enthalpy (van 't Hoff) (pH 5.5, Sodium acetate 20 mM): 83.3 kcal/mol
